One block for each molecule: values may come before it.
Columns and labels:
[1] = system: Aminipeptidase I + Carboxypeptidase Y; experiment: Reactivity of peptidase formulations against synthetic peptides: aminopeptidase I + carboxypeptidase Y; format: biochemical; conditions: phosphate buffer pH 5.3, 37° C. 3 hours, HPLC
Method: (§1) Peptides shown in Table 1 were chemically synthesized. […] All of these synthetic peptides were synthesized with the automatic peptide synthesizing machine PPSM-8 (manufactured by Shimadzu Corporation).
(§2) Each synthetic peptide was dissolved at the concentration of 10 μg/ml in 100 mM phosphate buffer pH 5.3 as to Experiments 1-1 to 1-4, 1-10 to 1-12, 1-16 and 1-21, or in 50 mM Tris-HCl buffer pH 8.0 as to other Experiments. Each of various peptidase formulations shown in Table 1 was then added so that the concentration thereof became 0.01 μg/ml, and the reaction was performed at 37° C. for 3 hours. After the enzyme reaction, the mixture was analyzed by the reverse phase high performance liquid chromatography (HPLC). […] The fractions of the detected peak were collected and amino acid sequence analysis was performed by the automatic peptide analyzer model PPSQ-10 (manufactured by Shimadzu Corporation). […]

[2] = system: Aminopeptidase + Carboxypeptidase Y; experiment: Reactivity of peptidase formulations against synthetic peptides: aminopeptidase A + carboxypeptidase Y; format: biochemical; conditions: 0.01 μg/ml, peptide 10 μg/ml, phosphate buffer pH 5.3, 37° C. 3 hours, HPLC
Method: as §1, §2

[3] = system: Leucine aminopeptidase, microsomal + Carboxypeptidase Y; experiment: Reactivity of peptidase formulations against synthetic peptides: LM + carboxypeptidase Y; format: biochemical; conditions: phosphate buffer pH 5.3, 37° C. 3 hours, HPLC
Method: as §1, §2

[4] = system: Leucine aminopeptidase, cytosol + Carboxypeptidase Y; experiment: Reactivity of peptidase formulations against synthetic peptides: LC + carboxypeptidase Y; format: biochemical; conditions: phosphate buffer pH 5.3, 37° C. 3 hours, HPLC
Method: as §1, §2

[5] = molecular target: T1, Leucine aminopeptidase, microsomal (Sus scrofa, UniProt P15145); experiment: Reactivity of peptidase formulations against synthetic peptides: LM alone; format: biochemical, porcine; conditions: no carboxypeptidase, Tris-HCl pH 8.0, 37° C. 3 hours, HPLC
T1 construct: purchased Sigma Chemical Co; host or cells: porcine kidney
T1 sequence (P15145 1-963): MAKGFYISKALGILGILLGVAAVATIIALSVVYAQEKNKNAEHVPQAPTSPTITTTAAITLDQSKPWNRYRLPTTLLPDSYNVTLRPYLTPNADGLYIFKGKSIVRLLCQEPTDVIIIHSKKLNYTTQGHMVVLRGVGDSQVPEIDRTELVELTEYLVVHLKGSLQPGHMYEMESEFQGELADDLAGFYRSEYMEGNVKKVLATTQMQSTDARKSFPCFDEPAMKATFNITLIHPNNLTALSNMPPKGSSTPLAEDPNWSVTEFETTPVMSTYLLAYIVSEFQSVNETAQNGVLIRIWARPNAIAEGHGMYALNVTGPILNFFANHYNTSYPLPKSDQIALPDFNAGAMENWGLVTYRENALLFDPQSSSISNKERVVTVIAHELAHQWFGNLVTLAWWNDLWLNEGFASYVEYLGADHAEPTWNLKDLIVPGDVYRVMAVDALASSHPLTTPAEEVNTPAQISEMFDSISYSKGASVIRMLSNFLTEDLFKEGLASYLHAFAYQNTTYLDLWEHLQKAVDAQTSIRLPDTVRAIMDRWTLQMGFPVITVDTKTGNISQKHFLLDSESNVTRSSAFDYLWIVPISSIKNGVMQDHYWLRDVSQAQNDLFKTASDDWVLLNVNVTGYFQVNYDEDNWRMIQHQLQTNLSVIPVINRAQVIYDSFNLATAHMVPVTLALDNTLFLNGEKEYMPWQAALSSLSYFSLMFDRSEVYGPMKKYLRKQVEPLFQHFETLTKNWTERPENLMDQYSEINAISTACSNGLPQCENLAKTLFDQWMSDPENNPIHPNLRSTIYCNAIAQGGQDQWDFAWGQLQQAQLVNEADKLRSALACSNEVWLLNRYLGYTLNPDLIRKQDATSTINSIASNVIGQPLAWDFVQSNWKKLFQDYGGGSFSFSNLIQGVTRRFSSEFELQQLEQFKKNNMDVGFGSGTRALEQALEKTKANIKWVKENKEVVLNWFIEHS
Method: as §1, §2

[6] = molecular target: T2, Leucine aminopeptidase, cytosol (Sus scrofa, UniProt P28839); experiment: Reactivity of peptidase formulations against synthetic peptides: LC alone; format: biochemical, porcine; conditions: no carboxypeptidase, Tris-HCl pH 8.0, 37° C. 3 hours, HPLC
T2 construct: purchased Sigma Chemical Co; host or cells: porcine kidney
T2 sequence (P28839 1-519): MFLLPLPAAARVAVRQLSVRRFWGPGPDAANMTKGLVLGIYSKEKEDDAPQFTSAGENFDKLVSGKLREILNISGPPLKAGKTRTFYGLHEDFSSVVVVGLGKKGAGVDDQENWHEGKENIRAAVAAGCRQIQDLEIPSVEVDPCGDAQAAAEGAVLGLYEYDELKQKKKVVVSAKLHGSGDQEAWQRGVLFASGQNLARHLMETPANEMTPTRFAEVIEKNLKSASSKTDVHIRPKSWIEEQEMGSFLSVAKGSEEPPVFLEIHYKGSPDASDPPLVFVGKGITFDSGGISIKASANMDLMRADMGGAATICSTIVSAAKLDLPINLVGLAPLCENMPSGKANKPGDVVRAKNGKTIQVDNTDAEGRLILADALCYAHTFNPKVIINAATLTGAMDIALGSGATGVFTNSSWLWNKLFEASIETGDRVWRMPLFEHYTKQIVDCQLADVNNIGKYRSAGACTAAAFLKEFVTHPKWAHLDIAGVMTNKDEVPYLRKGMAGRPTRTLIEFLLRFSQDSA
Method: as §1, §2

Aminopeptidase = experiment: Reactivity of peptidase formulations against synthetic peptides: aminopeptidase A alone; format: biochemical; conditions: no carboxypeptidase, Tris-HCl pH 8.0, 37° C. 3 hours, HPLC
Method: as §1, §2

Aminipeptidase I = molecular target: T3, Aminipeptidase I (Streptomyces griseus subsp. griseus, UniProt P80561); experiment: Reactivity of peptidase formulations against synthetic peptides: aminopeptidase I alone; format: biochemical; conditions: no carboxypeptidase, Tris-HCl pH 8.0, 37° C. 3 hours, HPLC
T3 construct: purchased Sigma Chemical Co
T3 sequence (P80561 46-329): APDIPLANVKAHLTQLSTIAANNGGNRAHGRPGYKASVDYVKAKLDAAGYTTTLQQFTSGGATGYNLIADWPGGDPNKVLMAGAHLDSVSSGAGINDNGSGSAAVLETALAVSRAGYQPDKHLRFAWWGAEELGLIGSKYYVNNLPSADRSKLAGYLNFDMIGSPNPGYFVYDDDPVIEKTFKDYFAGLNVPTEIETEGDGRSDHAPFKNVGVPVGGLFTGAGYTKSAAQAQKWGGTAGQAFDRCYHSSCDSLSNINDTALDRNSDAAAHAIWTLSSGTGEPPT
Method: as §1, §2

[7] = system: synthetic peptide consisting of the 28 amino acids (SEQ ID NO: 28); experiment: Two step reaction of proteinase and fraction 4 on the 28 amino acid synthetic peptide; format: biochemical; conditions: proteinase 0.1 μg/ml on 28-mer 10 μg/ml, pH 6.1, 37° C. 5 hours, heat inactivation, then fraction 4, HPLC
Method: To 10 μg/ml of the synthetic peptide consisting of the 28 amino acids that is the same as the one used in Experiment 2 (in 100 mM phosphate buffer pH 6.1), each of the commercially available proteinase enzymes for food processing shown in Table 4 was added at 0.1 μg/ml. The mixture was reacted at 37° C. for 5 hours. After finishing the reaction, the reacted liquid was heated at 100° C. for 5 minutes for inactivating the proteinase, and then reacted with the fraction 4 obtained in Experiment 4.

[8] = system: synthetic peptide consisting of 28 amino acids (SEQ ID NO: 28); experiment: Production of the intermediate peptides with proteinase from the 28 amino acid synthetic peptide; format: biochemical; conditions: enzyme 0.1 μg/ml, 28-mer 10 μg/ml, phosphate buffer pH 6.1, 37° C. 5 hours; HPLC and sequence analysis
Source text: A peptide consisting of 28 amino acids and having a sequence identical with a part of casein sequence and containing the sequence Ile-Pro-Pro and Val-Pro-Pro therein was chemically synthesized by the automatic peptide synthesizer model […]. The sequence of the peptide synthesized is as follows: […](SEQ ID NO: 28)
This synthetic peptide was reacted with various commercially available proteinase formulations, seeking for a proteinase capable of producing a peptide containing the sequence Ile-Pro-Pro or Val-Pro-Pro therein but containing no Pro other than these sequences.
That is, 0.1 μg/ml of each enzyme was added to 10 μg/ml of the synthetic peptide (in 100 mM phosphate buffer pH 6.1). The mixture was reacted at 37° C. for 5 hours to obtain a reacted liquid. The reacted liquid was analyzed by the reverse phase high performance liquid chromatography (HPLC). The fractions of the detected peptide peaks were collected and amino acid sequence analysis was performed by the automatic peptide analyzer model PPSQ-10.

Existence of IPP or VPP peaks [1]: IPP | Existence of IPP or VPP peaks [2]: IPP | Existence of IPP or VPP peaks [3]: IPP | Existence of IPP or VPP peaks [4]: IPP
Molecule: Asn Ile Pro Pro Leu (NIPPL)

Molecule: Val Val Pro Pro (VVPP)
Existence of IPP or VPP peaks [5]: VPP | Existence of IPP or VPP peaks [6]: VPP | Existence of IPP or VPP peaks (Aminopeptidase): VPP | Existence of IPP or VPP peaks (Aminipeptidase I): VPP

Production of the tripeptides Ile-Pro-Pro and Val-Pro-Pro [7]: Yes
B1: Papain: proteinase, Papaya Latex, Sigma Chemical Co. (protein, UniProt P00784 134-345, looked up)
Papain: IPEYVDWRQKGAVTPVKNQGSCGSCWAFSAVVTIEGIIKIRTGNLNEYSEQELLDCDRRSYGCNGGYPWSALQLVAQYGIHYRNTYPYEGVQRYCRSREKGPYAAKTDGVRQVQPYNEGALLYSIANQPVSVVLEAAGKDFQLYRGGIFVGPCGNKVDHAVAAVGYGPNYILIKNSWGTGWGENGYIRIKRGTGNSYGVCGLYTSSFYPVKN
Production of the tripeptides Ile-Pro-Pro and Val-Pro-Pro ([7]; listed as papain): can produce the tripeptides Ile-Pro-Pro and Val-Pro-Pro | Peptides produced in the reaction mixture [8]: a peptide Val-Pro-Pro-Phe-Leu as the peptide containing the sequence Val-Pro-Pro, and peptides Asn-Ile-Pro-Pro-Leu-Thr and Ile-Pro-Pro-Leu-Thr

Source: US6994987B1, “Process for producing tripeptides” (Calpis Co., Ltd., priority 1999, dated 2006)
